Laboratory results from patent US20240158497A1 (published 2024).

B1: bsAb21236D (bispecific antibody, V domains shown)
VH 1: QVQLQESGPGLVKPSQTLSLTCTVSGGSISSGGDYWSWIRQLPGKGLEWIGYIYYSGSAYYNPSLKSRGTISIDTSKNQFSLKLTSVTAADTAVYFCVKLRFLEWFLGGWFGPWGQGTLVTVSS
VH 2: QVQLVESGGGLVKPGGSLRLSCAASGFTFSDYYMTWIRQTPGKGLDWVSYISSSGTNKYNADSVKGRFTISRDNAKNSLYLQMNSLRAEDTAVYYCVRDPPWGMDVWGQGTTVTVSS
VL: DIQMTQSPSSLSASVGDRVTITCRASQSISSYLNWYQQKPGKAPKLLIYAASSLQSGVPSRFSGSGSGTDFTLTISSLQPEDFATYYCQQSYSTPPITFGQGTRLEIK
notes: LEPR x GP130 bispecific with common light chain; also called H4H21236D; bsAb21236 (LEPR × GP130)
B2: bsAb21237D (bispecific antibody, V domains shown)
VH 1: EVQLVESGGGLVQPGGSLRLSCAASGFTFSNYGMTWVRQAPGKGLEWVSAITGGGGSTYYSNSVKGRFTISRDNSKNTVYLRMNSVRAEDTAVYYCAKYKWNFVDDWGQGTTVTVSS
VH 2: B1 VH 2
VL: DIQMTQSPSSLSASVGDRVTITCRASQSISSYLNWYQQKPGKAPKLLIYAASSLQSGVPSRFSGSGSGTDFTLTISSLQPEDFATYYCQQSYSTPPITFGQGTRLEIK
notes: LEPR x GP130 bispecific with common light chain; also called H4H21237D; bsAb21237 (LEPR × GP130)

Tests used:
[1] = biological target: T1, Macaca Fascicularis GP130 extracellular domain expressed with a C-terminal myc-myc-hexahistidine tag (Macaca fascicularis, UniProt P40189 23-619 (human entry)); assay: SPR, bsAb captured by anti-hFc, 37C
T1 construct: also called mfGP130-MMH; mfGP130-mmH
T1 chain: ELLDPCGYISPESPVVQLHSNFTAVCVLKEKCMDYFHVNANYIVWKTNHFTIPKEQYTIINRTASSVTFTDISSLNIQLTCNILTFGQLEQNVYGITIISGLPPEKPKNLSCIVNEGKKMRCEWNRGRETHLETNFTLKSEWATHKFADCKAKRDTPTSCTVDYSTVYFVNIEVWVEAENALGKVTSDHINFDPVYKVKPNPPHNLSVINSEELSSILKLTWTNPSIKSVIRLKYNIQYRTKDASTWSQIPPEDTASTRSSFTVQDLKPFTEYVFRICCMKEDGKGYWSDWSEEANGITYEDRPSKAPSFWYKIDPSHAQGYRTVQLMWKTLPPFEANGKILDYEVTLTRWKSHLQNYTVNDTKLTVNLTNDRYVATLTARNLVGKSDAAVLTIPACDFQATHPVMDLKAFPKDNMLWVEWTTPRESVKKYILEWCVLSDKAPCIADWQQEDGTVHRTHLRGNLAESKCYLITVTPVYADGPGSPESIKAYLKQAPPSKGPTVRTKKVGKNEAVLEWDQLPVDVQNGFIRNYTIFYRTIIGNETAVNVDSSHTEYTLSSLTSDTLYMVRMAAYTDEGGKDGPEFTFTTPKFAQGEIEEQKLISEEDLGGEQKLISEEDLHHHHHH
In short: (§1)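 Anti-hFc-captured bispecific antibodies received 3-fold serial dilutions of LEPR or GP130 (100 nM–3.7 nM) in HBS-ET, pH 7.4, injected for 4 min with 10 min dissociation at 25 °C or 37 °C. ka and kd came from a 1:1 binding model with mass transport limitation, and KD and t½ were calculated from these rate constants.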

[2] = biological target: T2, human GP130 extracellular domain expressed with a C-terminal myc-myc-hexahistidine tag (human, UniProt P40189 23-619); assay: SPR, bsAb captured by anti-hFc, 37C
T2 construct: also called hGP130-MMH; hGP130-mmH
In short: as §1

[3] = biological target: T3, mutant human LEPR (Y1141F) on HEK293.STAT3.Luc.GP130.hLEPR (Y1141F) cells (human, UniProt P48357 22-1165); assay: cell-based or functional assay
T3 sequence (looked up): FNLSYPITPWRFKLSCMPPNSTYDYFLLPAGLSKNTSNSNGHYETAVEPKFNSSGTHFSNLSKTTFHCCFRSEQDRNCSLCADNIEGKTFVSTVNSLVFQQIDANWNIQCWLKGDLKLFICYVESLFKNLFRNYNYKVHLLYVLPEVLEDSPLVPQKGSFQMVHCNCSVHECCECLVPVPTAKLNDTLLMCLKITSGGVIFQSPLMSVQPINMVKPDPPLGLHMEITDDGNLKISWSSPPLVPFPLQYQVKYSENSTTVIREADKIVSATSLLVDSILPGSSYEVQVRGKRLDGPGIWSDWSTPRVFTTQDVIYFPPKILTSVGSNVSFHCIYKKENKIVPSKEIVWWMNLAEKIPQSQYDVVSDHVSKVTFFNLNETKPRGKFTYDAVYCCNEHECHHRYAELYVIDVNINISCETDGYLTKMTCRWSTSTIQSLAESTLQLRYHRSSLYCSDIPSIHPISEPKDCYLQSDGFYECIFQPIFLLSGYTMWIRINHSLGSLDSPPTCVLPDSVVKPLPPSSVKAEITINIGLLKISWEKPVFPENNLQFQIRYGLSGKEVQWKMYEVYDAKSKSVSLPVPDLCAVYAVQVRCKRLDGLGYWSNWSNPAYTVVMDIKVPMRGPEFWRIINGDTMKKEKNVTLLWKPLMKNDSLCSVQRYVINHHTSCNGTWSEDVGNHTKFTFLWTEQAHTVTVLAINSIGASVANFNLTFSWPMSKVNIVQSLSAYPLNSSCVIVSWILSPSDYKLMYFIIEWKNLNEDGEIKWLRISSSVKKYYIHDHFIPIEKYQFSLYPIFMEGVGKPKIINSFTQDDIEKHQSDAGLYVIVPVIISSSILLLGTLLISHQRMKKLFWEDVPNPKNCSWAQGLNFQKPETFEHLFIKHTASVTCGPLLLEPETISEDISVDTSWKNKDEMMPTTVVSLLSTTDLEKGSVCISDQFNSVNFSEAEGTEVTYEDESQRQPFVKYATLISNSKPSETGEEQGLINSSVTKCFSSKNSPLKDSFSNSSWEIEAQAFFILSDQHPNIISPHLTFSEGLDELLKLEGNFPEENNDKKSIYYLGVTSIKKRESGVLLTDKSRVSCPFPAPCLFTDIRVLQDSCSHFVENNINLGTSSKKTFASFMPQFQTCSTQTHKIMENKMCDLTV

Row | Binder | 100 nM mfGP130-MMH Bound (RU) [1] [RU] | Kd [1] [µM] | koff [1] [s⁻¹] | kon [1] [M⁻¹ s⁻¹] | t½ [1] [min] | 100 nM hGP130-MMH Bound (RU) [2] [RU] | Kd [2] [µM] | koff [2] [s⁻¹] | kon [2] [M⁻¹ s⁻¹] | t½ [2] [min] | EC50 (M), STAT3-luciferase activation of HEK293.STAT3.Luc.GP130.hLEPR (Y1141F) cells, 10 nM leptin [3] [M]
1 | B1 | 18 | 0.179 | 0.0125 | 69800 | 0.9 | 12 | 0.248 | 0.0148 | 59700 | 0.8 | 2.11e-09
2 | B2 | 21 | 0.215 | 0.00792 | 36900 | 1.5 | 19 | 0.144 | 0.00879 | 61100 | 1.3 | 2.46e-09
